Test results from patent publication US20250262210A1 (TRUSTEES OF COLUMBIA UNIVERSITY IN THE CITY OF NEW YORK, published 2025).
Substitutions are numbered along the chain they refer to. In names and notes the source's numbering stands.

T1: GTF3C2 (human, UniProt Q8WUA4 1-911, limits assumed)
T1 sequence (looked up): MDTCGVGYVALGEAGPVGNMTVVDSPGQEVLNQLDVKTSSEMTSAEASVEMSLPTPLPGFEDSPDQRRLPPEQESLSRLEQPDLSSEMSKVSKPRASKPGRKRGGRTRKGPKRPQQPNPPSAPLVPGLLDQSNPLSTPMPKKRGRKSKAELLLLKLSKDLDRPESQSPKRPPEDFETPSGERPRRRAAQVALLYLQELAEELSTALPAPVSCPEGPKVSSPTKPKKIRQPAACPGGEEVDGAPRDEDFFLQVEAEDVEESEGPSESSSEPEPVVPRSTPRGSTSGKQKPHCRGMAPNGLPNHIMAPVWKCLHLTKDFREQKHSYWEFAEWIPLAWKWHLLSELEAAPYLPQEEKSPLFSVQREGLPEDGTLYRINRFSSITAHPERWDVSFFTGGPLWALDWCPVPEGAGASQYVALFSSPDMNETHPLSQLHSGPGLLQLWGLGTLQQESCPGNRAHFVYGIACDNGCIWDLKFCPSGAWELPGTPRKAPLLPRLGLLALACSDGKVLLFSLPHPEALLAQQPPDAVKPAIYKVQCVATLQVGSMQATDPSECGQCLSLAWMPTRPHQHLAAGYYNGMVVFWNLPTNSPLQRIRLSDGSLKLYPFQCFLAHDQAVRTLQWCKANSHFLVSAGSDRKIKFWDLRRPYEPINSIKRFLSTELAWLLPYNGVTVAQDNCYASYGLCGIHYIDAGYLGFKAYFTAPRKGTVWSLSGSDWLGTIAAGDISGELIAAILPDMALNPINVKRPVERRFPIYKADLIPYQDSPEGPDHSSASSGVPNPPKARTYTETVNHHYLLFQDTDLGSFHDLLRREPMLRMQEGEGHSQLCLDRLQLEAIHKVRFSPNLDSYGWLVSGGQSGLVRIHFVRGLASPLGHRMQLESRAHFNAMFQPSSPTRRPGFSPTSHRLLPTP

T2: CTDP1 (human, UniProt Q9Y5B0 1-961, limits assumed)
T2 sequence (looked up): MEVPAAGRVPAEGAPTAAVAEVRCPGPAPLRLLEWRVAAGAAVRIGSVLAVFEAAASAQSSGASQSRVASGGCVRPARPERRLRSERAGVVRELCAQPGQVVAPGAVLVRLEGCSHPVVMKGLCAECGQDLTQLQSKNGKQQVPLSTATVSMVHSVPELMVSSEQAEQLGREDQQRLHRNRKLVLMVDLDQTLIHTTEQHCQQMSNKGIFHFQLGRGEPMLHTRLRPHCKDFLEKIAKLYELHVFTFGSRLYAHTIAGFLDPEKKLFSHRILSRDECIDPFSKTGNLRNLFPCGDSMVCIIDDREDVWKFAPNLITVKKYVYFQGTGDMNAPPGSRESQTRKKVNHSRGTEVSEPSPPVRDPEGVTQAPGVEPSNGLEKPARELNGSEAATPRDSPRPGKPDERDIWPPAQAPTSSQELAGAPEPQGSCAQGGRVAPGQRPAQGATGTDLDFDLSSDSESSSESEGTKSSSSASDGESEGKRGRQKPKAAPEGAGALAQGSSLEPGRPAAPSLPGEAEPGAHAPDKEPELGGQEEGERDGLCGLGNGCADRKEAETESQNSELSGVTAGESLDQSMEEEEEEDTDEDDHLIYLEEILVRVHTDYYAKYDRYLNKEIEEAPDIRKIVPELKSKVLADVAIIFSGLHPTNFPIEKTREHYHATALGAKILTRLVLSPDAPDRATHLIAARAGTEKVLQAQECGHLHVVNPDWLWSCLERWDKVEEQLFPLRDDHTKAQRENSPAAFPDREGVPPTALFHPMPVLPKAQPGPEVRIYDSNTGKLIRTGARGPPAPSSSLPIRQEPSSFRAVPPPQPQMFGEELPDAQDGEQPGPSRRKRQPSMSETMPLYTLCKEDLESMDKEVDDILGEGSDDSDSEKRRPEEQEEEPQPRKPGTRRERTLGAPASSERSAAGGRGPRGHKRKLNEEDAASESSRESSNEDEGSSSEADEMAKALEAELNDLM

B1: LZTR1-FLAG (other, human, UniProt Q8N653 1-840, looked up)
chain: MAGPGSTGGQIGAAALAGGARSKVAPSVDFDHSCSDSVEYLTLNFGPFETVHRWRRLPPCDEFVGARRSKHTVVAYKDAIYVFGGDNGKTMLNDLLRFDVKDCSWCRAFTTGTPPAPRYHHSAVVYGSSMFVFGGYTGDIYSNSNLKNKNDLFEYKFATGQWTEWKIEGRLPVARSAHGATVYSDKLWIFAGYDGNARLNDMWTIGLQDRELTCWEEVAQSGEIPPSCCNFPVAVCRDKMFVFSGQSGAKITNNLFQFEFKDKTWTRIPTEHLLRGSPPPPQRRYGHTMVAFDRHLYVFGGAADNTLPNELHCYDVDFQTWEVVQPSSDSEVGGAEVPERACASEEVPTLTYEERVGFKKSRDVFGLDFGTTSAKQPTQPASELPSGRLFHAAAVISDAMYIFGGTVDNNIRSGEMYRFQFSCYPKCTLHEDYGRLWESRQFCDVEFVLGEKEECVQGHVAIVTARSRWLRRKITQARERLAQKLEQEAAPVPREAPGVAAGGARPPLLHVAIREAEARPFEVLMQFLYTDKIKYPRKGHVEDVLLIMDVYKLALSFQLCRLEQLCRQYIEASVDLQNVLVVCESAARLQLSQLKEHCLNFVVKESHFNQVIMMKEFERLSSPLIVEIVRRKQQPPPRTPLDQPVDIGTSLIQDMKAYLEGAGAEFCDITLLLDGHPRPAHKAILAARSSYFEAMFRSFMPEDGQVNISIGEMVPSRQAFESMLRYIYYGEVNMPPEDSLYLFAAPYYYGFYNNRLQAYCKQNLEMNVTVQNVLQILEAADKTQALDMKRHCLHIIVHQFTKVSKLPTLRSLSQQLLLDIIDSLASHISDKQCAELGADI
notes: Expressed in HEK 293T, HeLa or U87 cells; used as cell lysate; also called LZTR1 wild type-FLAG; LZTR1 WT; not shown: FLAG tag at the C-terminus
B2: LZTR1 R810W-FLAG (other, human, UniProt Q8N653 1-840, looked up)
chain: B1 chain with R810W
notes: Stably expressed in U87 cells by lentivirus; also called LZTR1-FLAG-R810W; LZTR1 RW; not shown: FLAG tag

Assays:
[1] = molecular target: T1, GTF3C2; experiment: IP/MS, LZTR1 wild type-FLAG, U87
Outline: (§1)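 Gel slices were reduced with 5 mM DTT, alkylated with 11 mM IAA and digested overnight at 37° C. with trypsin. Peptides were analysed on an Orbitrap Fusion Tribrid by LC-MS/MS.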

[2] = molecular target: ARFGEF1 (human, UniProt Q9Y6D6 1-1849); experiment: IP/MS, LZTR1 wild type-FLAG, U87
ARFGEF1, sequence (Q9Y6D6 whole entry): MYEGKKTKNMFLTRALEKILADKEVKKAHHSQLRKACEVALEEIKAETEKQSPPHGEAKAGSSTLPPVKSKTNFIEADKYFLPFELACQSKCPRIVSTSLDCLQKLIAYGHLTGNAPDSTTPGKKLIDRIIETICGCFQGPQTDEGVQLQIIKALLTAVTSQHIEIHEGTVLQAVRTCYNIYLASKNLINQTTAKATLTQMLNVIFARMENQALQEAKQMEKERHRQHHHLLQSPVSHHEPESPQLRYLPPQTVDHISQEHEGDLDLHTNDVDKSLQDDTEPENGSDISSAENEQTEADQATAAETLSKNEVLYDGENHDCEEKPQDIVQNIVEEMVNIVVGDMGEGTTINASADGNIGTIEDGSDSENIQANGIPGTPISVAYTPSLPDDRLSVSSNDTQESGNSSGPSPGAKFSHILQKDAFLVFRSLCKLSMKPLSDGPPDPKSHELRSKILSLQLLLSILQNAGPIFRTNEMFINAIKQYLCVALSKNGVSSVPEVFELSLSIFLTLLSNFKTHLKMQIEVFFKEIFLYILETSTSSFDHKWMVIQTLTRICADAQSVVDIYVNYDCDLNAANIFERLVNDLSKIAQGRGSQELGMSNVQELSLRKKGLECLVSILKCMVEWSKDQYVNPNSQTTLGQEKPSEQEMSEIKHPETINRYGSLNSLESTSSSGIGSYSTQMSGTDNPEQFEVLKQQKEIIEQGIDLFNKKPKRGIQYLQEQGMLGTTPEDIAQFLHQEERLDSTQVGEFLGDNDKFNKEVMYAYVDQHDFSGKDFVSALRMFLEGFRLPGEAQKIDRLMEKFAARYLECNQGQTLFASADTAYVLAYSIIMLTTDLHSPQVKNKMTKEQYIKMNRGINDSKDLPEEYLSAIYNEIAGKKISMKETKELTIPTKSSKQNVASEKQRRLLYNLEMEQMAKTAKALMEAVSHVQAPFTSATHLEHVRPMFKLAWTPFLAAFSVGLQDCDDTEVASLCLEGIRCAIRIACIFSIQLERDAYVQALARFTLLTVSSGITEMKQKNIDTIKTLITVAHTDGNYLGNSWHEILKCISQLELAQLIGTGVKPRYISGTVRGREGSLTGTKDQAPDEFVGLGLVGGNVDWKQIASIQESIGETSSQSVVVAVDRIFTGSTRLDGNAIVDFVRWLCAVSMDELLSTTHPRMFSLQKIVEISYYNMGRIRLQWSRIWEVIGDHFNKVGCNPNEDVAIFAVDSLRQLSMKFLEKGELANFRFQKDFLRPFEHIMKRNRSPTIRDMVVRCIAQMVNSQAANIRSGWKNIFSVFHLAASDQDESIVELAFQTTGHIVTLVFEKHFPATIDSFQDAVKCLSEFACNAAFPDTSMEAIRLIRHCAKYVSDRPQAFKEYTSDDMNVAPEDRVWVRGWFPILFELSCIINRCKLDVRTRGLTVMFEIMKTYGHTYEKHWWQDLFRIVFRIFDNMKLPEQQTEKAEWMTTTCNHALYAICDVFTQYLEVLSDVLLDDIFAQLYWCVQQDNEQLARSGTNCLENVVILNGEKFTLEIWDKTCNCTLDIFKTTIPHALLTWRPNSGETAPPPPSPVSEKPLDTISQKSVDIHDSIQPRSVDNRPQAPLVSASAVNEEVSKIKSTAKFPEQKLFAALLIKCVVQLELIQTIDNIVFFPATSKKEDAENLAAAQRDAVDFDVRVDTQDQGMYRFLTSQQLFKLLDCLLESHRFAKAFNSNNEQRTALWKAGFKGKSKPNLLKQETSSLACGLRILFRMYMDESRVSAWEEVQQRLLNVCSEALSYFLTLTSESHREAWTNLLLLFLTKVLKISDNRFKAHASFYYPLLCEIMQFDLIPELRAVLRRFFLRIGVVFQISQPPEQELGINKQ
Outline: as §1

[3] = molecular target: T2, CTDP1; experiment: IP/MS, LZTR1 R810W-FLAG, U87
Outline: as §1

Row | Binder | binding result [1] | binding result [2] | binding result [3]
1 | B1 | binds | binds | 
2 | B2 |  |  | binds
